Publication PMC5942583 (Nature structural & molecular biology, 2018)

Biological target: 15N-labeled WT 2N4R tau (microtubule-associated protein tau, longest adult isoform) (human, UniProt P10636-8 1-441, 15N-labeled)
Assay: NMR titration

B1: DnaJA2 (natural protein)
chain: not shown
binding result: binds
